From US20190062425A1 (BETH ISRAEL DEACONESS MEDICAL CENTER, published 2019)

Molecular target: T1, human transmembrane-4 L six family member-1 (TM4SF1), full-length (human, UniProt P30408 1-202, N-glycosylated at N129 and N159 (ECL2))
T1 construct: whole, on cells; Four-transmembrane plasma membrane glycoprotein; It was tested on cells (HUVEC, transduced HDF and HEMn), in tissue sections and on immunoblots; also called FL-TM4SF1; FL
T1 sequence (looked up): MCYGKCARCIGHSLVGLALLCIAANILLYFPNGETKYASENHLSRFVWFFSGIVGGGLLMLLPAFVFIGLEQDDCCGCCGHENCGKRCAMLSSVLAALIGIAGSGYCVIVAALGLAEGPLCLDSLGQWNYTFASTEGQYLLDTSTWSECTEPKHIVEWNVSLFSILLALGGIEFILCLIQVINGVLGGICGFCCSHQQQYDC
Test: method not stated

Kd: ~1 nM
B1: 8G4 antibody (anti-TM4SF1 mouse monoclonal antibody produced by hybridoma mouse cell line 8G4-5-13-13F, PTA-120523) (antibody, V domains shown)
VH: EVILVESGGGLVKPGGSLKLSCAASGFTFSSFAMSWVRQTPEKRLEWVATISSGSIYIYYTDGVKGRFTISRDNAKNTVHLQMSSLRSEDTAMYYCARRGIYYGYDGYAMDYWGQGTSVTVSS
VL: AVVMTQTPLSLPVSLGDQASISCRSSQSLVHSNGNTYLHWYMQKPGQSPKVLIYKVSNRFSGVPDRFSGSGSGTDFTLKISRVEADDLGIYFCSQSTHIPLAFGAGTKLELK
notes: Mouse monoclonal antibody from a hybridoma; both have the length of variable domains; also called anti-TM4SF1 antibody 8G4
